Each block holds one molecule with its values, some of them ahead of it.
What was measured:
[1] = molecular target: N-terminal HaloTag human KIF1A (amino acids 1-361) fusion protein (human) (UniProt Q12756); assay: pull-down; HaloTag-Kif1a (1-361) on HaloLink magnetic beads under saturated conditions; MTs with or without full-length human Dcx; 5 μM of each protein; 4 mM ATP, ADP or AMP-PNP; supernatant and pellet, silver staining, densitometry, bound fraction P/(S+P) normalized to ATP without Dcx
[2] = molecular target: MTs of the traditional MT pull-down assay from lysates; assay: pull-down; traditional MT pull-down assay with AMP-PNP; lysates from HEK cells expressing Kif1 (1-365) with or without Dcx (amino acids 1-270); excess MTs

fold increase of Kif1a-MT binding with Dcx in the presence of ADP, against a Dcx-negative control [1]: 2 fold
Molecule: porcine MTs (microtubules) (complex)

increase in binding of Kif1a to MTs with Dcx (amino acids 1-270) over control [2]: 15 to 20%
B1: motor domain of Kif1 (amino acids 1-365) (domain or fragment)
chain: MAGASVKVAVRVRPFNSREMSRDSKCIIQMSGSTTTIVNPKQPKETPKSFSFDYSYWSHTSPEDINYASQKQVYRDIGEEMLQHAFEGYNVCIFAYGQTGAGKSYTMMGKQEKDQQGIIPQLCEDLFSRINDTTNDNMSYSVEVSYMEIYCERVRDLLNPKNKGNLRVREHPLLGPYVEDLSKLAVTSYNDIQDLMDSGNKARTVAATNMNETSSRSHAVFNIIFTQKRHDAETNITTEKVSKISLVDLAGSERADSTGAKGTRLKEGANINKSLTTLGKVISALAEMDSGPNKNKKKKKTDFIPYRDSVLTWLLRENLGGNSRTAMVAALSPADINYDETLSTLRYADRAKQIRCNAVINEDPN

From paper PMC3549492
